According to article PMC8130760:

Target: human IL-15Rα (captured on the surface plasmon resonance sensor chip) (human) (UniProt Q13261)
Experiment: SPR

UniProt Q13261, sequence (Q13261 31-267): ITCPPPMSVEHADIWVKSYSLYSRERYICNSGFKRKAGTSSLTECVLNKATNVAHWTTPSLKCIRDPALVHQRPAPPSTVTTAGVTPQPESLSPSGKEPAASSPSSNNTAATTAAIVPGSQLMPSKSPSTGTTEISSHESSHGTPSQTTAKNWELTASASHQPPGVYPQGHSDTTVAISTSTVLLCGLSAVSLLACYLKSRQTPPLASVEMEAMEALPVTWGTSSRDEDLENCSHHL

Kd | koff | kon | Substance
19 pM | 9.3e-05 s⁻¹ | 5.1e+06 M⁻¹ s⁻¹ | recombinant human interleukin-15 (rhIL-15) (from UniProt P40933 49-162) (ligand)
85 pM | 6.7e-05 s⁻¹ | 780000 M⁻¹ s⁻¹ | NKTR-255, polyethylene glycol-conjugate of recombinant human interleukin-15 (from UniProt P40933 49-162) (ligand)
